Source: patent publication US11015206B2, “Compositions and methods comprising sequences having hydroxyphenylpyruvate dioxygenase (HPPD) activity” (PIONEER HI-BRED INTERNATIONAL, INC., priority 2014, dated 2021)
Substitutions are numbered along the chain they refer to.

B1: Z. mays wt: maize wild-type HPPD, SEQ ID NO:1 (glycine for proline at position 2) (protein)
chain: MGPTPTAAAAGAAVAAASAAEQAAFRLVGHRNFVRFNPRSDRFHTLAFHHVELWCADAASAAGRFSFGLGAPLAARSDLSTGNSAHASLLLRSGSLSFLFTAPYAHGADAATAALPSFSAAAARRFAADHGLAVRAVALRVADAEDAFRASVAAGARPAFGPVDLGRGFRLAEVELYGDVVLRYVSYPDGAAGEPFLPGFEGVASPGAADYGLSRFDHIVGNVPELAPAAAYFAGFTGFHEFAEFTTEDVGTAESGLNSMVLANNSENVLLPLNEPVHGTKRRSQIQTFLDHHGGPGVQHMALASDDVLRTLREMQARSAMGGFEFMAPPTSDYYDGVRRRAGDVLTEAQIKECQELGVLVDRDDQGVLLQIFTKPVGDRPTLFLEIIQRIGCMEKDEKGQEYQKGGCGGFGKGNFSQLFKSIEDYEKSLEAKQAAAAAAAQGS
modifications: Zea mays
B2: R7-9070: shuffled maize HPPD, Round 7, variant 9070 (SEQ ID NO:2); backbone for saturation mutagenesis (protein)
chain: MGPTPTATAAGAAVAAASAAEQAAFRLVGHRNFVRFNPRSDRFQTLAFHHVELWCADAASAAGRFSFALGVPLAARSDLSTGNSAHASLLLRSGSLSLLFTAPYAHGADAATAALPSFSAAAARRFAADHGLAVRAVALRVADAEDAFRASVAAGARPAFGPVDLGRGFRLAEVELYGDVVLRYVSYPDGAAGEPFLPGFEGVASPGAADYGLSRFDHIVGNVPELAPAAAYMAGFTGFHEFAEFTTEDVGTTESGLNSMALANNSENVLLPLNEPVHGTKRRSQIQTFLDHHGGPGVQHIALASDDVLRTLREMRARSAMGGFEFLPPPLSDYYDGVRRCAGDVLTEAQINECQELGVMVDRDDQGVLLQIFTKPVGDRPTFFLEIIQRIGCMEKDEKGQEYQKGGCGGFGKGNFGQLFKSIEDYEKSLEAKQAAAAATAQGS
modifications: Zea mays variant form created by artificial means.
notes: backbone for saturation mutagenesis
B3: P056028-G-01 (protein)
chain: B2 chain with Y211L, S214N, R340K, Q366E, A432K, Q434R
modifications: Zea mays variant form created by artificial means.
B4: P056028-G-01R (protein)
chain: B2 chain with Y211L, S214N, R340K, Q366E, M394R, A432K, Q434R
modifications: Zea mays variant form created by artificial means.
B5: P056028-B-02 (protein)
chain: B2 chain with P206S, E356K, Q366E, K428R, A438V
modifications: Zea mays variant form created by artificial means.
B6: P056028-A-03 (protein)
chain: B2 chain with A191G, Y211L, Q366E, A432R, Q434R
modifications: Zea mays variant form created by artificial means.
B7: P056028-D-03 (protein)
chain: B2 chain with L182M, S214N, Q366E
modifications: Zea mays variant form created by artificial means.

Assays:
Type in all cases: biochemical, Z. mays
[1] = tested on: 4-hydroxyphenylpyruvate dioxygenase (HPPD); experiment: Insensitivity parameter (ON × OFF) and trait fitness (ON × OFF × kcat/KM or × kcat); design: key to ON × OFF / Insensitivity, mesotrione, ON × OFF / Insensitivity, tembotrione, ON × OFF / Insensitivity, topramezone, ON × OFF / Insensitivity, sulcotrione, ON × OFF / Insensitivity, isoxaflutole (DKN), ON × OFF: insensitivity = ON rate ratio × OFF rate ratio (surrogate for KD); settings: for ON × OFF × kcat, Value / ON × OFF × kcat, Fold vs wt / ON × OFF, fold vs wt / ON × OFF (parameters with tembotrione): Table 5; for ON × OFF × kcat, Fold vs wt / ON × OFF, fold vs wt: fold vs maize wild type HPPD; for ON × OFF (parameters with tembotrione): insensitivity parameter; for Insensitivity, isoxaflutole (DKN), ON × OFF / Insensitivity, isoxaflutole (DKN), Trait fitness: inhibitor diketonitrile form of isoxaflutole (DKN); for Insensitivity, mesotrione, ON × OFF / Insensitivity, mesotrione, Trait Fitness: inhibitor mesotrione; for Insensitivity, sulcotrione, ON × OFF / Insensitivity, sulcotrione, Trait fitness: inhibitor sulcotrione; for Insensitivity, tembotrione, ON × OFF / Insensitivity, tembotrione, Trait fitness: inhibitor tembotrione; for Insensitivity, topramezone, ON × OFF / Insensitivity, topramezone, Trait Fitness: inhibitor topramezone
Method in brief: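 Calculated, not measured directly: ON rate ratio × OFF rate ratio gives an insensitivity parameter serving as a KD surrogate.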

[2] = tested on: 4-hydroxyphenylpyruvate dioxygenase (HPPD); experiment: Estimate of kcat from initial rate at saturating hydroxyphenylpyruvate without inhibitor (ON rate ratio assay)
Method in brief: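 Reactions used 60 or 120 nM HPPD and saturating 100 μM hydroxyphenylpyruvate without inhibitor. kcat was estimated from the initial rate at the known enzyme concentration.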

[3] = tested on: 4-hydroxyphenylpyruvate dioxygenase (HPPD); experiment: HPPD activity coupled assay with HGD; substrate saturation kinetic parameters (kcat, KM)
Method in brief: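 Coupled continuous assay: His-tagged HPPD (5 to 240 nM, E. coli-expressed, Ni-NTA-purified) with 50 nM P. aeruginosa HGD in 25 mM Hepes pH 7, 2 mM ascorbate, 10 μM FeSO4; maleylacetoacetate followed at 320 nm. KM and Vmax from Lineweaver-Burke fits over 3.33–100 μM HPP.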

[4] = DKN (diketonitrile form of isoxaflutole)
[5] = Table 5, single substitutions in Round 7 variant 9070 (SEQ ID NO:2), estimate from initial rate at saturating hydroxyphenylpyruvate without inhibitor
[6] = Table 2, E. coli purified proteins
[7] = Table 6, single substitutions in SEQ ID NO:2
[8] = substrate saturation kinetic analysis
[9] = Table 7, tembotrione, combinatorial variants
[10] = Table 7, combinatorial variants

Molecule | Insensitivity, isoxaflutole (DKN), ON × OFF [1] | Insensitivity, isoxaflutole (DKN), Trait fitness [1] | Insensitivity, mesotrione, ON × OFF [1] | Insensitivity, mesotrione, Trait Fitness [1] | Insensitivity, sulcotrione, ON × OFF [1] | Insensitivity, sulcotrione, Trait fitness [1] | Insensitivity, tembotrione, ON × OFF [1] | Insensitivity, tembotrione, Trait fitness [1] | Insensitivity, topramezone, ON × OFF [1] | Insensitivity, topramezone, Trait Fitness [1] | Km [3, 8] | kcat [3, 8] | ON × OFF ([1]; Megatable 3, shuffled variants) | ON × OFF × kcat ([1]; Megatable 3, shuffled variants) | ON × OFF [1, 9] | ON × OFF × kcat [1, 9] | kcat ([2]; Megatable 3, shuffled variants) | kcat [2, 10] | also measured
B1 | 0.0005 | 0.015 | 0.062 | 2.1 | 0.042 | 1.45 | 0.007 | 0.26 | 0.002 | 0.077 | 6.41 µM | 3.65 s⁻¹ |  |  |  |  |  |  | Insensitivity parameter, ON × OFF [1, 4]: 0.0096; Insensitivity parameter, ON × OFF ([1]; Mesotrione, Table 6): 0.0437; Insensitivity parameter, ON × OFF ([1]; Sulcotrione): 0.0872; ON × OFF × kcat, Value ([1]; tembotrione): 1.07; ON × OFF × kcat, Fold vs wt ([1]; tembotrione): 1.00; ON × OFF, fold vs wt ([1]; tembotrione): 1.00; ON × OFF (parameters with tembotrione) ([1]; tembotrione): 0.0051; Insensitivity parameter, ON × OFF ([1]; Tembotrione): 0.0051; Insensitivity parameter, ON × OFF ([1]; Topramezon): 0.0154; Fitness Fold vs Zm wt ([1]; mesotrione): 1; fold less sensitive to mesotrione than soybean HPPD ([1]; mesotrione): 40 fold; Insensitivity parameter, ON × OFF ([1]; mesotrione, Table 2): 0.06; kcat [2, 5]: 3.5 s⁻¹; Km [3, 6]: 6.4 µM; kcat [3, 6]: 3.65 s⁻¹; Km ([3]; Table 6): 6.4 µM; kcat [3, 7]: 3.65 s⁻¹; kcat ([3]; text b374): about 220 min^−1
B2 | 0.11 | 3.30 | 0.59 | 18.1 | 0.38 | 11.8 | 0.17 | 5.36 | 0.13 | 3.99 | 2.91 µM | 1.48 s⁻¹ | 0.086 | 3.45 | 0.086 | 3.45 | 0.667 s⁻¹ | 0.667 s⁻¹ | Insensitivity parameter, ON × OFF [1, 4]: 0.24; Insensitivity parameter, ON × OFF ([1]; Mesotrione, Table 6): 0.45; Insensitivity parameter, ON × OFF ([1]; Sulcotrione): 0.56; ON × OFF × kcat, Value ([1]; tembotrione): 5.25; ON × OFF × kcat, Fold vs wt ([1]; tembotrione): 4.90; ON × OFF, fold vs wt ([1]; tembotrione): 30.0; ON × OFF (parameters with tembotrione) ([1]; tembotrione): 0.15; Insensitivity parameter, ON × OFF ([1]; Tembotrione): 0.19; Insensitivity parameter, ON × OFF ([1]; Topramezon): 0.26; Fitness Fold vs Zm wt ([1]; mesotrione): 7.9; Insensitivity parameter, ON × OFF ([1]; mesotrione, Table 2): 0.56; Insensitivity ON × OFF, Fold vs wt ([1]; mesotrione, vs maize wild type): 9.11; kcat [2, 5]: 0.57 s⁻¹; Km [3, 6]: 2.9 µM; kcat [3, 6]: 1.48 s⁻¹; Km ([3]; Table 6): 2.35 µM; kcat [3, 7]: 0.918 s⁻¹
B3 | 0.32 | 6.55 | 0.71 | 14.6 | 0.89 | 18.2 | 0.36 | 7.32 | 0.46 | 9.31 | 2.06 µM | 0.69 s⁻¹ | 0.238 | 7.65 | 0.238 | 7.65 | 0.537 s⁻¹ | 0.537 s⁻¹ | 
B4 | 0.29 | 3.98 | 0.73 | 25.6 | 0.83 | 11.5 | 0.20 | 7.09 | 0.43 | 5.91 | 2.02 µM | 1.18 s⁻¹ | 0.201 | 14.24 | 0.201 | 14.24 | 1.18 s⁻¹ | 1.18 s⁻¹ | 
B5 | 0.35 | 6.78 | 0.63 | 12.3 | 0.81 | 15.8 | 0.37 | 7.35 | 0.42 | 8.17 | 3 µM | 0.978 s⁻¹ | 0.375 | 10.58 | 0.375 | 10.58 | 0.47 s⁻¹ | 0.47 s⁻¹ | 
B6 | 0.34 | 7.25 | 0.70 | 14.8 | 0.75 | 15.7 | 0.32 | 6.81 | 0.38 | 7.97 | 2.98 µM | 1.05 s⁻¹ | 0.181 | 4.36 | 0.181 | 4.36 | 0.4 s⁻¹ | 0.4 s⁻¹ | 
B7 | 0.31 | 6.51 | 0.68 | 14.5 | 0.84 | 17.9 | 0.35 | 7.44 | 0.46 | 9.88 | 2.08 µM | 0.737 s⁻¹ | 0.349 | 6.83 | 0.349 | 6.83 | 0.327 s⁻¹ | 0.327 s⁻¹ | 
